In US12721801B2, “Compositions and methods relating to stimulation of hyaluronic acid” (Alastin Skincare, Inc., priority 2020, dated 2026):

What was measured:
human dermal fibroblasts = details: cited from earlier work
human fibroblast cells = assay: HA production assessment, SDS-PAGE of fibroblast supernatants; format: cell-based; details: Experiment 2, primary adult human dermal fibroblasts, 72 hours, octapeptide 100 ug/mL, SymDecanox 250 ug/mL, others 500 ug/mL, FIG. 6
Protocol: In a second experiment, HA production was also assessed with the test compounds below. Briefly, primary adult human dermal fibroblast cells were cultured until near confluent in 6 well plates. The cells were treated with the compounds and concentrations indicated to the right. After 72 hours, 100 μL of media were collected from each treatment condition and was concentrated in a SpeedVac concentrator to a final volume of ~10 uL.
All 10 μL of the supernatants were loaded onto an acrylamide gel (NuPAGE 4-12% Bis-Tris Protein Gel) and run at 200V for 3 hours. The gel was stained to detect the presence of HA. Data is seen in FIG. 6. […] Lane 11 is the negative control, representing the untreated cells. This band represents the cells constitutive level of HA. Treating the cells with all the indicated compounds (lanes 1-10) produced an increased level of high molecular weight HA. […]

B1: Lactoferrin: a transferrin; wound healing attributes, increases HA secretion (protein, UniProt P02788 20-710, looked up)
Lactotransferrin: GRRRSVQWCAVSQPEATKCFQWQRNMRKVRGPPVSCIKRDSPIQCIQAIAENRADAVTLDGGFIYEAGLAPYKLRPVAAEVYGTERQPRTHYYAVAVVKKGGSFQLNELQGLKSCHTGLRRTAGWNVPIGTLRPFLNWTGPPEPIEAAVARFFSASCVPGADKGQFPNLCRLCAGTGENKCAFSSQEPYFSYSGAFKCLRDGAGDVAFIRESTVFEDLSDEAERDEYELLCPDNTRKPVDKFKDCHLARVPSHAVVARSVNGKEDAIWNLLRQAQEKFGKDKSPKFQLFGSPSGQKDLLFKDSAIGFSRVPPRIDSGLYLGSGYFTAIQNLRKSEEEVAARRARVVWCAVGEQELRKCNQWSGLSEGSVTCSSASTTEDCIALVLKGEADAMSLDGGYVYTAGKCGLVPVLAENYKSQQSSDPDPNCVDRPVEGYLAVAVVRRSDTSLTWNSVKGKKSCHTAVDRTAGWNIPMGLLFNQTGSCKFDEYFSQSCAPGSDPRSNLCALCIGDEQGENKCVPNSNERYYGYTGAFRCLAENAGDVAFVKDVTVLQNTDGNNNEAWAKDLKLADFALLCLDGKRKPVTEARSCHLAMAPNHAVVSRMDKVERLKQVLLHQQAKFGRNGSDCPDKFCLFQSETKNLLFNDNTECLARLHGKTTYEKYLGPQYVAGITNLKKCSTSPLLEACEFLRK
HA secretion (human dermal fibroblasts; literature (Saito et al. 2011)): increases HA secretion | Proliferation of fibroblasts (human dermal fibroblasts; literature (Saito et al. 2011; Takayama 2012)): promotes proliferation of fibroblasts | Level of high molecular weight HA (band on gel) (human fibroblast cells): secrete high molecular weight HA
